Laboratory results from patent US7119174B2, “Diagnosis and treatment of AUR1 and/or AUR2 related disorders” (Sugen, Inc., priority 1995, dated 2006).

Columns and labels:
AUR2 = AUR2 protein expression by immunoblot after antisense oligo treatment of H1299 cells; assay type: cell-based; conditions: human tumor cell line H1299, lipofectin, each oligo 1 μM then 200 nM, harvested ~40 hours after initial treatment
Experimental: Human H1299 cells were seeded at ˜40–50% confluency in a 6 well plate (Falcon). The following day lipofectin (Gibco) and oligo(s) were mixed with OptiMEM (Gibco) such that the final concentration of lipofectin is 100 μg/mL and the final concentration of each oligo is 1 μM in a volume of 200 μL. The lipofectin/oligo/OptiMEM mixture was incubated at room temperature (20–25° C.) for 15 minutes, 800 μL of OptiMEM was added to the lipofectin/oligo/OptiMEM mixture, and mixed gently. The growth medium was removed from the H1299 cells, which were at ˜80% confluency. Cells were washed once with OptiMEM. The OptiMEM was aspirated, the lipofectin/oligo/OptiMEM mixture was added, cultures incubated at 37° C. for 4 hours. The lipofectin/oligo/OptiMEM mixture was removed and replaced with normal growth medium containing the antisense oligo(s) at a concentration of 200 nM. The plates were returned to the 37° C. incubator for 16–20 hours after which the growth medium was removed from the cells and they were washed once with OptiMEM. The OptiMEM was again aspirated and the lipofectin/oligo/OptiMEM mixture was added (prepared as described above) and the plates again were incubated at 37° C. for 4 hours. The lipofectin/oligo/OptiMEM mixture was removed again and replaced with normal growth medium containing the antisense oligo(s) at a concentration of 200 nM. The platea were returned to the 37° C. incubator for 16–20 hours. The cells were harvested (˜40 hours after initial treatment) and analyzed for aur2 mRNA by northern blot or AUR2 protein expression by immunoblot.

[1] = molecular target: myelin basic protein (Sigma)

| Molecule | AUR2 protein expression (AUR2) | in vitro kinase assay on protein from stable Rat1 lines (alpha-casein) | in vitro kinase assay on protein from stable NIH3T3 lines [1] | further results |
| --- | --- | --- | --- | --- |
| CAGGGCAGAGTGGTCACTTTC (listed as DNA, chemistry not given here) [SEQ ID NO:30, antisense oligonucleotide to nucleotides 1743–1763 of aur2] | significantly down regulated | – | – | – |
| SEQ ID NO:16: printed in b341 as antisense oligonucleotide targeting human aur2 mRNA; probably misprint for one of SEQ ID NO:30-32 (antisense GARTTYGGNGARGTNTTYYTNGC; listed as DNA, chemistry not fully specified) | significantly down regulate | – | – | – |
| SEQ ID NO:17: printed in b341 as antisense oligonucleotide targeting human aur2 mRNA; probably misprint for one of SEQ ID NO:30-32 (antisense AGNACNCCRAANGCCCACACRTC; listed as DNA, chemistry not fully specified) | significantly down regulate | – | – | – |
| TGCAGTCGAACCTTGCCTCCA (listed as DNA, chemistry not given here) [SEQ ID NO:32, antisense oligonucleotide to nucleotides 1654–1674 of aur2] | significantly down regulated | – | – | – |
| CGTCCGCCACTCCGACCAGCC (listed as DNA, chemistry not given here) [SEQ ID NO:31, antisense oligonucleotide to nucleotides 42–62 of aur2] | significantly down regulated | – | – | – |
| HA-tagged activated human AUR2 mutant T288D (protein) MDRSKENCISGPVKATAPVGGPKRVLVTQQFPCQNPLPVNSGQAQRVLCPSNSSQRVPLQAQKLVSSHKPVQNQKQKQLQATSVPHPVSRPLNNTQKSKQPLPSAPENNPEEELASKQKNEESKKRQWALEDFEIGRPLGKGKFGNVYLAREKQSKFILALKVLFKAQLEKAGVEHQLRREVEIQSHLRHPNILRLYGYFHDATRVYLILEYAPLGTVYRELQKLSKFDEQRTATYITELANALSYCHSKRVIHRDIKPENLLLGSAGELKIADFGWSVHAPSSRRTDLCGTLDYLPPEMIEGRMHDEKVDLWSLGVLCYEFLVGKPPFEANTYQETYKRISRVEFTFPDFVTEGARDLISRLLKHNPSQRPMLREVLEHPWITANSSKPSNCQNKESASKQSYPYDVPDYAS | – | the wild-type and activated AUR2 (T288D) proteins had increased activity on this artificial substrate | the activated AUR2 mutant (T288D) had marked activity on this artificial substrate | – |
| HA-tagged wild-type human AUR2 (entire coding domain with C-terminal HA epitope) (protein) MDRSKENCISGPVKATAPVGGPKRVLVTQQFPCQNPLPVNSGQAQRVLCPSNSSQRVPLQAQKLVSSHKPVQNQKQKQLQATSVPHPVSRPLNNTQKSKQPLPSAPENNPEEELASKQKNEESKKRQWALEDFEIGRPLGKGKFGNVYLAREKQSKFILALKVLFKAQLEKAGVEHQLRREVEIQSHLRHPNILRLYGYFHDATRVYLILEYAPLGTVYRELQKLSKFDEQRTATYITELANALSYCHSKRVIHRDIKPENLLLGSAGELKIADFGWSVHAPSSRRTTLCGTLDYLPPEMIEGRMHDEKVDLWSLGVLCYEFLVGKPPFEANTYQETYKRISRVEFTFPDFVTEGARDLISRLLKHNPSQRPMLREVLEHPWITANSSKPSNCQNKESASKQSYPYDVPDYAS | – | the wild-type and activated AUR2 (T288D) proteins had increased activity on this artificial substrate | The wild-type and kinase inactive AUR2 mutant (K162M) were unable to phosphorylate myelin basic protein in vitro | – |
| HA-tagged kinase inactive human AUR2 mutant K162M (protein) MDRSKENCISGPVKATAPVGGPKRVLVTQQFPCQNPLPVNSGQAQRVLCPSNSSQRVPLQAQKLVSSHKPVQNQKQKQLQATSVPHPVSRPLNNTQKSKQPLPSAPENNPEEELASKQKNEESKKRQWALEDFEIGRPLGKGKFGNVYLAREKQSKFILALMVLFKAQLEKAGVEHQLRREVEIQSHLRHPNILRLYGYFHDATRVYLILEYAPLGTVYRELQKLSKFDEQRTATYITELANALSYCHSKRVIHRDIKPENLLLGSAGELKIADFGWSVHAPSSRRTTLCGTLDYLPPEMIEGRMHDEKVDLWSLGVLCYEFLVGKPPFEANTYQETYKRISRVEFTFPDFVTEGARDLISRLLKHNPSQRPMLREVLEHPWITANSSKPSNCQNKESASKQSYPYDVPDYAS | – | The kinase inactive AUR2 mutant (K162M) was unable to phosphorylate-casein over the levels observed in the vector control cell line in vitro | The wild-type and kinase inactive AUR2 mutant (K162M) were unable to phosphorylate myelin basic protein in vitro | – |
| human AUR2 (AURORA TWO), endogenous protein in lysates of human tumors and tumor cell lines (protein) MDRSKENCISGPVKATAPVGGPKRVLVTQQFPCQNPLPVNSGQAQRVLCPSNSSQRVPLQAQKLVSSHKPVQNQKQKQLQATSVPHPVSRPLNNTQKSKQPLPSAPENNPEEELASKQKNEESKKRQWALEDFEIGRPLGKGKFGNVYLAREKQSKFILALKVLFKAQLEKAGVEHQLRREVEIQSHLRHPNILRLYGYFHDATRVYLILEYAPLGTVYRELQKLSKFDEQRTATYITELANALSYCHSKRVIHRDIKPENLLLGSAGELKIADFGWSVHAPSSRRTTLCGTLDYLPPEMIEGRMHDEKVDLWSLGVLCYEFLVGKPPFEANTYQETYKRISRVEFTFPDFVTEGARDLISRLLKHNPSQRPMLREVLEHPWITANSSKPSNCQNKESASKQS | – | – | – | in vitro kinase assay, phosphorylation of myelin basic protein [1]: AUR1 and AUR2 immunocomplexes were able to phosphorylate myelin basic protein |
| human AUR1 (AURORA ONE), endogenous protein in SW480 cell lysate (protein) MAQKENSYPWPYGRQTAPSGLSTLPQRVLRKEPVTPSALVLMSRSNVQPTAAPGQKVMENSSGTPDILTRHFTIDDFEIGRPLGKGKFGNVYLAREKKSHFIVALKVLFKSQIEKEGVEHQLRREIEIQAHLHHPNILRLYNYFYDRRRIYLILEYAPRGELYKELQKSCTFDEQRTATIMEELADALMYCHGKKVIHRDIKPENLLLGLKGELKIADFGWSVHAPSLRRKTMCGTLDYLPPEMIEGRMHNEKVDLWCIGVLCYELLVGNPPFESASHNETYRRIVKVDLKFPASVPTGAQDLISKLLRHNPSERLPLAQVSAHPWVRANSRRVLPPSALQSVA | – | – | – | in vitro kinase assay, phosphorylation of myelin basic protein [1]: AUR1 and AUR2 immunocomplexes were able to phosphorylate myelin basic protein |
